{"source": "the PETadex activity labels (doi:10.1073/pnas.2006753117)", "proteins": {"B1": {"name": "unnamed (protein)", "chain": "MNFPRASRLMQAAVLGGLMAVSAAATAQTNPYARGPNPTAASLEASAGPFTVRSFTVSRPSGYGAGTVYYPTNAGGTVGAIAIVPGYTARQSSIKWWGPRLASHGFVVITIDTNSTLDQPSSRSSQQMAALRQVASLNGTSSSPIYGKVDTARMGVMGWSMGGGGSLISAANNPSLKAAAPQAPGYQLPKAGISGAWTTQSLAPAAVGLDAQGVPLINKSFSDADLHLLSQAILGTCDALDGLADGIVDNYRACQAAFDPATAANPANGQALQCVGAKTADCLSPVQVTAIKRAMAGPVNSAGTPLYNRWAWDAGMSGLSGTTYNQGWRSWWLGSFNSSANNAQRVSGFSARSWLVDFATPPEPMPMTQVAARMMKFDFDIDPLKIWATSGQFTQSSMDWHGATSTSSVTVPTLIFACENDSIAPVNSSALPIYDSMSRNAKQFLEINGGSHSCANSGNSNQALIGKKGVAWMKRFMDNDTRYSTFACENPNSTRVSDFRTANCS"}, "B2": {"name": "unnamed (protein)", "chain": "MQTTVTTMLLASVALAACAGGGSTPLPLPQQQPPQQEPPPPPVPLASRAACEALKDGNGDMVWPNAATVVEVAAWRDAAPATASAAALPEHCEVSGAIAKRTGIDGYPYEIKFRLRMPAEWNGRFFMEGGSGTNGSLSAATGSIGGGQIASALSRNFATIATDGGHDNAVNDNPDALGTVAFGLDPQARLDMGYNSYDQVTQAGKAAVARFYGRAADKSYFIGWSEGGREGMMLSQRFPSHYDGIVAGAPWDSSTNFDLAAFRDRGGKMILYHGMSDAAFSALDTADYYERLGAAMPGAAGFARLFLVPGMNHSSGGPGTDRFDMLTPLVAWVERGEAPDQISAWSGTPGYFGVAARTRPLCPYPQIARYKGSGDINTEANFACAAPP"}, "B3": {"name": "unnamed (protein)", "chain": "MQTTVTTMLLASVALAACAGGGSTPLPLPQQQPPQQEPPPPPVPLASRAACEALKDGNGDMVWPNAATVVEVAAWRDAAPATASAAALPEHCEVSGAIAKRTGIDGYPYEIKFRLRMPAEWNGRFFMEGGSGTNGSLSAATGSIGGGQIASALSRNFATIATDGGHDNAVNDNPDALGTVAFGLDPQARLDMGYNSYDQVTQAGKAAVARFYGRAADKSYFIGHSEGGREGMMLSQRFPSHYDGIVAGAPWDSSTNFDLAAFRDRGGKMILYHGMSDAAFSALDTADYYERLGAAMPGAAGFARLFLVPGMNHFSGGPGTDRFDMLTPLVAWVERGEAPDQISAWSGTPGYFGVAARTRPLCPYPQIARYKGSGDINTEANFACAAPP"}, "B4": {"name": "unnamed (protein)", "chain": "MQTTVTTMLLASVALAACAGGGSTPLPLPQQQPPQQEPPPPPVPLASRAACEALKDGNGDMVWPNAATVVEVAAWRDAAPATASAAALPEHCEVSGAIAKRTGIDGYPYEIKFRLRMPAEWNGRFFMEGGSGTNGSLSAATGSIGGGQIASALSRNFATIATDGGHDNAVNDNPDALGTVAFGLDPQARLDMGYNSYDQVTQAGKAAVARFYGRAADKSYFIGCSEGGREGMMLSQRFPSHYDGIVAGAPWDSSTNFDLAAFRDRGGKMILYHGMSDAAFSALDTADYYERLGAAMPGAAGFARLFLVPGMNHCSGGPGTDRFDMLTPLVAWVERGEAPDQISAWSGTPGYFGVAARTRPLCPYPQIARYKGSGDINTEANFACAAPP"}, "B5": {"name": "unnamed (protein)", "chain": "MFVRNADRAKNCMRAPLRVFPLKDTFSAQCANVSVWITSSVPPLRERHMDRRVTRRDLMQTRILLMLIAATGVAACGGDGGSTPAAQNPPLPLASRAACEAFQGNSNSIAWPHRATVVEVATWHEAEPANATAAATPEHCEISGAIARRTGIDGYPYEIKFRLRMPSEWNGRFFMEGGGGTNGSLSAATGSLGGGQTASALSRNFATIATDGGHDNAVNNNPDALGTVAFGMDPQARIDMGYNSYDQVTQAGKAAVAQFYGRAPDKSYFIGCSEGGREGMMLSQRFPSHYDGIVAGAPGYQLPKAGISGAWTTQSLAPAAVGVDAQNVPLINKAFSDVDLHLLSRGILGTCDALDGLSDGIVNDFRACQAAFDPATALNPDTSQPLQCTGAKTPDCLSAAQVTGIKRAMGGPVDSAGAALYNRWAWDPGMSGLNGTSYNQGWRSWWLGSYASSTNNAQRVNGFSARSWLVDFATPPEPMPVTQVAARMMNFNFDTDPPKIRATSGPFTPSSMEWHGATSTNLAAFRDRGGKLMLYHGMSDAAFSALDTADYYERLGAAMPGAAGFARLFLVPGMNHCSGGPGTDRFDMLTPLVAWVERDKAPDQVSAWAGTPGYFGATARTRPLCPYPQIARYKGSGDINAEASFVCVAP"}, "B6": {"name": "unnamed (protein)", "chain": "MQTTVTTMLLASVALAACAGGGSTPLPLPQQQPPQQEPPPPPVPLASRAACEALKDGNGDMVWPNAATVVEVAAYVPAGVNISMADNPSICGGDEDPITSTFAFCEVSGAIAKRTGIDGYPYEIKFRLRMPAEWNGRFFMEGGSGTNGCLSAATGSIGGGQIASALSRNFATIATDGGHDNAVNDNPDALGTVAFGLDPQARLDMGYNSYDQVTQAGKAAVARFYGRAADKSYFIGCSEGGREGMMLSQRFPSHYDGIVAGAPGYQLPKAGISGAWTTQSLAPAAVGLDAQGVPLINKSFSDADLHLLSQAILGTCDALDGLADGIVDNYRACQAAFDPATAANPANGQALQCVGAKTADCLSPVQVTAIKRAMAGPVNSAGTPLYNRWAWDAGMSGLSGTTYNQGWRSWWLGSFNSSANNAQRVSGFSARSWLVDFATPPEPMPMTQVAARMMKFDFDIDPLKIWATSGQFTQSSMDWHGATSTDLAAFRDRGGKMILYHCMSDAAFSALDTADYYERLGAAMPGAAGFARLFLVPGMNHCCGGPGTDRFDMLTPLVAWVERGEAPDQISAWSGTPGYFGVAARTRPLCPYPQIARYKGSGDINTEANFACAAPP"}, "B7": {"name": "unnamed (protein)", "chain": "MQTTVTTMLLASVALAACAGGGSTPLPLPQQQPPQQEPPPPPVPLASRAACEALKDGNGDMVWPNAATVVEVAAWRDAAPATASAAALPEHCEVSGAIAKRTGIDGYPYEIKFRLRMPAEWNGRFFMEGGGGTNGSLSAATGSIGGGQIASALSRNFATIATDGGHDNAVNDNPDALGTVAFGLDPQARLDMGYNSYDQVTQAGKAAVARFYGRAADKSYFIGCSEGGREGMMLSQRFPSHYDGIVAGAPGYQLPKAGISGAWTTQSLAPAAVGLDAQGVPLINKSFSDADLHLLSQAILGTCDALDGLADGIVDNYRACQAAFDPATAANPANGQALQCVGAKTADCLSPVQVTAIKRAMAGPVNSAGTPLYNRWAWDAGMSGLSGTTYNQGWRSWWLGSFNSSANNAQRVSGFSARSWLVDFATPPEPMPMTQVAARMMKFDFDIDPLKIWATSGQFTQSSMDWHGATSTDLAAFRDRGGKMILYHGMSDAAFSALDTADYYERLGAAMPGAAGFARLFLVPGMNHCSGGPGTDRFDMLTPLVAWVERGEAPDQISAWSGTPGYFGVAARTRPLCPYPQIARYKGSGDINTEANFACAAPP"}, "B8": {"name": "unnamed (protein)", "chain": "MQTTVTTMLLASVALAACAGGGSTPLPLPQQQPPQQEPPPPPVPLASRAACEALKDGNGDMVWPNAATVVEVAAWRDAAPATASAAALPEHCEVSGAIAKRTGIDGYPYEIKFRLRMPAEWNGRFFMEGGSGTNGSLSAATGSIGGGQIASALSRNFATIATDGGHDNAVNDNPDALGTVAFGLDPQARLDMGYNSYDQVTQAGKAAVARFYGRAADKSYFIGCSEGGREGMMLSQRFPSHYDGIVAGAPGYQLPKAGISGAWTTQSLAPAAVGLDAQGVPLINKSFSDADLHLLSQAILGTCDALDGLADGIVDNYRACQAAFDPATAANPANGQALQCVGAKTADCLSPVQVTAIKRAMAGPVNSAGTPLYNRWAWDAGMSGLSGTTYNQGWRSWWLGSFNSSANNAQRVSGFSARSWLVDFATPPEPMPMTQVAARMMKFDFDIDPLKIWATSGQFTQSSMDWHGATSTDLAAFRDRGGKMILYHGMSDAAISALDTADYYERLGAAMPGAAGFARLFLVPGMNHCSGGPGTDRFDMLTPLVAWVERGEAPDQISAWSGTPGYFGVAARTRPLCPYPQIARYKGSGDINTEANFACAAPP"}, "B9": {"name": "unnamed (protein)", "chain": "MQTTVTTMLLASVALAACAGGGSTPLPLPQQQPPQQEPPPPPVPLASRAACEALKDGNGDMVWPNAATVVEVAAWRDAAPATASAAALPEHCEVSGAIAKRTGIDGYPYEIKFRLRMPAEWNGRFFMEGGSGTNGSLSAATGSIGGGQIASALSRNFATIATDGGHDNAVNDNPDALGTVAFGLDPQARLDMGYNSYDQVTQAGKAAVARFYGRAADKSYFIGCSTGGREGMMLSQRFPSHYDGIVAGAPGYQLPKAGISGAWTTQSLAPAAVGLDAQGVPLINKSFSDADLHLLSQAILGTCDALDGLADGIVDNYRACQAAFDPATAANPANGQALQCVGAKTADCLSPVQVTAIKRAMAGPVNSAGTPLYNRWAWDAGMSGLSGTTYNQGWRSWWLGSFNSSANNAQRVSGFSARSWLVDFATPPEPMPMTQVAARMMKFDFDIDPLKIWATSGQFTQSSMDWHGATSTDLAAFRDRGGKMILYHGMSDAAFSALDTADYYERLGAAMPGAAGFARLFLVPGMNHCSGGPGTDRFDMLTPLVAWVERGEAPDQISAWSGTPGYFGVAARTRPLCPYPQIARYKGSGDINTEANFACAAPP"}, "B10": {"name": "unnamed (protein)", "chain": "MQTTVTTMLLASVALAACAGGGSTPLPLPQQQPPQQEPPPPPVPLASRAACEALKDGNGDMVWPNAATVVEVAAWRDAAPATASAAALPEHCEVSGAIAKRTGIDGYPYEIKFRLRMPAEWNGRFFMEGGSGTNGSLSAATGSIGGGQIASALSRNFATIATDGGHDNAVNDNPDALGTVAFGLDPQARLDMGYNSYDQVTQAGKAAVARFYGRAADKSYFIGCAEGGREGMMLSQRFPSHYDGIVAGAPGYQLPKAGISGAWTTQSLAPAAVGLDAQGVPLINKSFSDADLHLLSQAILGTCDALDGLADGIVDNYRACQAAFDPATAANPANGQALQCVGAKTADCLSPVQVTAIKRAMAGPVNSAGTPLYNRWAWDAGMSGLSGTTYNQGWRSWWLGSFNSSANNAQRVSGFSARSWLVDFATPPEPMPMTQVAARMMKFDFDIDPLKIWATSGQFTQSSMDWHGATSTDLAAFRDRGGKMILYHGMSDAAFSALDTADYYERLGAAMPGAAGFARLFLVPGMNHCSGGPGTDRFDMLTPLVAWVERGEAPDQISAWSGTPGYFGVAARTRPLCPYPQIARYKGSGDINTEANFACAAPP"}}}
{"substrate": "MHET", "experiment": "Proxy for plastic degradation [kcat] (s⁻¹)", "conditions": "pH 7.5"}
{"protein": "B1", "Proxy for plastic degradation": 0.11}
{"protein": "B2", "Proxy for plastic degradation": 0.1}
{"protein": "B3", "Proxy for plastic degradation": 0.06}
{"protein": "B4", "Proxy for plastic degradation": 0.05}
{"protein": "B5", "Proxy for plastic degradation": 9.5}
{"protein": "B6", "Proxy for plastic degradation": 0.16}
{"protein": "B7", "Proxy for plastic degradation": 11}
{"protein": "B8", "Proxy for plastic degradation": 1.3}
{"protein": "B9", "Proxy for plastic degradation": 14}
{"protein": "B10", "Proxy for plastic degradation": 0}
